Results on 15 molecules are retold here after patent US20170233449A1 (Teva, published 2017).

The target of test [1] is human CD38 on cells (human, UniProt P28907 1-300). Nature of the test: flow cytometry, hybridoma supernatant on RPMI-8226 cells; background MFI average 153. Background: Flow cytometry measures light scatter and fluorescence of single cells or particles in a stream.
Description: Viable RPMI-8226 cells (2×10⁵, as judged by trypan blue exclusion) were incubated with 100 μL of rat hybridoma supernatant for 20 minutes on ice in the dark. Cells were washed twice with FACS buffer (1× PBS plus 1% FCS) before incubation for 20 minutes in 100 μl of FACS buffer containing anti-rat IgG-FITC conjugate (Sigma-Aldrich). After washing cells in FACS buffer, they were resuspended in FACS buffer and analysed for antibody-binding by flow cytometry on a FACS Canto (BD Biosciences, San Diego, Calif.) using EV, side scatter and FL-1 gating. Results were expressed as mean fluorescent intensity (MFI).
The target in test [2] is T1, cynomolgus monkey CD38 extracellular domain (ECD), tagged (cynomolgus monkey, Avitag biotinylated (in the ELISAs)).
T1 construct: also called cynomolgus monkey CD38 ED
T1 chain: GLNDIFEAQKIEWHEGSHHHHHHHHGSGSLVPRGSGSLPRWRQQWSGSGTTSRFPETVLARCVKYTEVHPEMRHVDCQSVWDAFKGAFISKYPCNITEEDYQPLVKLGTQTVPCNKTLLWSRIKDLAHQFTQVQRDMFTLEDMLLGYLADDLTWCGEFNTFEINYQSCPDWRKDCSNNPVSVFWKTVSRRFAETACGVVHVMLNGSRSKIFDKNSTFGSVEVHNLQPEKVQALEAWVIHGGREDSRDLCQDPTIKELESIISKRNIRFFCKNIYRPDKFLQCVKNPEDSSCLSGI
Nature of the test: SPR (Biacore T200), antibody captured on Protein A, CD38 ED as analyte, 1:1 Langmuir fit.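 Also: CM5 sensor chip in HBS-P buffer at pH 7.4, antibody loaded at 5 µg/mL, responses corrected against a blank reference flow cell before fitting.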 Background: SPR reads the build-up and loss of mass on a sensor chip optically.
Description: (§1) Briefly, using a Biacore T200, Protein A was immobilized onto Flow Cell (FC) 1 (FC1) and FC2 (or alternatively FC3 and FC4) of a CM5 research grade sensor chip using amine coupling, giving approximately 2000 RU. FC1 was used as a blank throughout the experiments. The experiments were run in HBS-P buffer (0.01 M HEPES pH 7.4, 0.15 M NaCl, 0.005% v/v Surfactant P20). At a flow rate of 20 μl/min, 20 μl of 5 μg/mL of antibody was passed over FC2. […] Regeneration of the surface was performed using 10mM Glycine, pH 1.0. The FC1 sensorgram data was subtracted from FCS and the curves were fitted using a 1:1 Langmuir equation to generate the kd, kₐ and KD values.

For test [3], the target named is T2, human CD38 extracellular domain (ECD), tagged (human, Avitag biotinylated (in the ELISAs)).
T2 construct: also called human CD38 ED; biotinylated human CD38
The test is described as above.
Description: as §1

The target in test [4] is T1, cynomolgus monkey CD38 extracellular …. Nature of the test: ELISA, biotinylated CD38 ED on streptavidin plates, FAb lysate, anti-V5-HRP.
Description: (§2) Plates were then washed and individual FAb samples (prepared as described above) were added to individual wells on the ELISA plates. FAbs were allowed to bind the captured CD38 ED for an hour at room temperature and then washed three times with PBS-T (1× PBS supplemented with 0.1% Tween®20). FAbs that bound to CD38 ED were detected by incubation for 30 minutes at room temperature with an anti-V5-HRP conjugated antibody (Invitrogen, Carlsbad, Calif.) to detect the V5 tag fused to the C-terminus of the FAb heavy chain. Plates were washed to remove unbound antibody and the assay signal developed by incubation with 50 μL 3,3′,5,5′-Tetramethylbenzidine (Sigma-Adrich, St. Louis, Mo.) and quenching with 50 μL 1 M HCl. Assay signals were read at A450 nm using a microplate reader (BMG Labtech). Results were expressed as the raw A450 nm value, where any signal 2-fold greater than the average assay background was defined as ‘positive’.
(§3) In later assays FAb cross-reactivity with cynomolgus monkey CD38 ED was assessed by coating biotinylated cynomolgus monkey CD38 ED onto streptavidin coated ELISA plates and proceeding as described above.
Test [5] deals with T2, human CD38 extracellular domain (ECD), …. The description is as above.
Description: as §2, §3
Test [6] concerns the target T1, cynomolgus monkey CD38 extracellular …. The experiment in a line: ELISA, hybridoma supernatant coated, biotinylated CD38 ED in solution. Background: In an ELISA, binding on a coated surface is turned into a signal by an enzyme label.
Description: (§4) Following incubation for 1 hour at room temperature, plates were washed as described previously. To one well of each rat antibody duplicate well was added 0.1 μg of biotinylated human CD38 in a final volume of 100 μL 1× PBS. To the second well of each rat antibody duplicate well was added 0.1 μg of biotinylated cynomolgus monkey CD38 ED in a final volume of 100 μL 1× PBS. Plate wells were washed as described previously prior to detection of bound biotinylated CD38 ED using a Streptavidin-HRP conjugate (BD Biosciences, San Diego, Calif.). Plates were washed as above to remove unbound Streptavidin-HRP conjugate and the assay signal developed by incubation with 50 μL 3,3′,5,5′-Tetramethylbenzidine (Sigma-Aldrich) and quenching with 50 μL 1 M HCl. Assay signals were read at A₄₅₀ nm using a microplate reader (BMG Labtech, Cary, N.C.).
The target of test [7] is T2, human CD38 extracellular domain (ECD), …. The description is as above.
Description: as §4

B1: R10A2 (rat hybridoma antibody) (antibody, V domains shown)
VH: EVQLQQSGPEVGRPGSSVKISCKASGYTFTDSVMNWVKQSPGQGLEWIGWIDPEYGRTDVAEKFKKKATLTADSSSSTAYIYLSGLTSEDTATYFCARTKYNSGYGFPYWGQGSLVTVSS
VL: DIVMTQSPTSISISVGERVTMNCKASQNVDSDVDWYQQKTGQSPKLLIYKASNRYTGVPDRFTGSGSGTDFTFTISNMQAEDLAVYYCMQSNTHPRTFGGGTKLELK
notes: tested as rat hybridoma supernatant; kappa light chain
In the case of B1, in test [1], the MFI was found to be 4470 MFI.

B2: R10A2 IgG1 (antibody, V domains shown)
VH: EVQLQQSGPEVGRPGSSVKISCKASGYTFTDSVMNWVKQSPGQGLEWIGWIDPEYGRTDVAEKFKKKATLTADSSSSTAYIYLSGLTSEDTATYFCARTKYNSGYGFPYWGQGSLVTVSS
VL: DIVMTQSPTSISISVGERVTMNCKASQNVDSDVDWYQQKTGQSPKLLIYKASNRYTGVPDRFTGSGSGTDFTFTISNMQAEDLAVYYCMQSNTHPRTFGGGTKLELKR
notes: chimeric rat-human IgG1
B2: in test [2], the Kd was 2.2 nM, the koff came to 0.00193 s⁻¹ and the kon worked out at 898000 M⁻¹ s⁻¹. Also, in test [3], the Kd came to 0.7 nM, the koff stood at 0.000479 s⁻¹ and the kon came out at 660000 M⁻¹ s⁻¹.

B3: X910/12 FAb (Fab, V domains shown)
VH: EVQLVQSGAEVKKSGASVKVSCKASGYTFTDYYIHWVRQAPGQGLEWMGWINPNNGGVTFAQKFQGRVTMTRDTSISTAYMDLSSLRSDDTAVYFCARDIRMSGWLAPFDYWGQGTLVTVSS
VL: QAVLTQPASLSASPGESARLTCTLPSDINVRYYNIYWYQQKPGSPPRYLLYYYSDSHKDQGSGVPSRFSGSKDTSANTGILLISGLQSEDEADYYCMIWASNGSGVLGGGTQLTVL
notes: human Fab from E. coli lysate, V5 tag at the C-terminus of the Fab heavy chain
Consider B3, for which the binding result in test [4] and in test [5] was “binds” each time.

B4: R5E8 IgG1 (antibody, V domains shown)
VH: EVQLQQSGPEVGRPGSSVKISCKASGYIFTDYIMHWVKQSPGQGLEWIGWIDPEYGSTDYAEKFKKKATLTADTSSSTAYIQLSSLTSEDTATYFCARVAIITTVASGGFAYWGQGTLVTVSS
VL: DIVMTQGALPNPVPSGESASITCQSSESLLHSNGKTYLNWYLQRPGQSPQLLIYWMSTRAAGVSDRFSGSGSGTDFTLTISGVEAEDVGVYYCQQFLEYPPTFGSGTKLEIKR
notes: chimeric rat-human IgG1
In test [2], B4 returned a Kd of 4.2 nM, a koff of 0.0019 s⁻¹ and a kon of 452000 M⁻¹ s⁻¹. In test [3], this molecule yielded an equilibrium dissociation constant (Kd) of 2.9 nM, a koff of 0.00118 s⁻¹ and a kon of 405000 M⁻¹ s⁻¹.

B5: R5E8 (rat hybridoma antibody) (antibody, V domains shown)
VH: EVQLQQSGPEVGRPGSSVKISCKASGYIFTDYIMHWVKQSPGQGLEWIGWIDPEYGSTDYAEKFKKKATLTADTSSSTAYIQLSSLTSEDTATYFCARVAIITTVASGGFAYWGQGTLVTVSS
VL: DIVMTQGALPNPVPSGESASITCQSSESLLHSNGKTYLNWYLQRPGQSPQLLIYWMSTRAAGVSDRFSGSGSGTDFTLTISGVEAEDVGVYYCQQFLEYPPTFGSGTKLEIK
notes: as for B1
Take B5: the MFI in test [1] came out at 10600 MFI.

B6: X355/01 FAb (Fab, V domains shown)
VH: QVQLVQSGAEVKKPGSSVKVSCKASGGNFISYSISWVRQAPGKRLEWMGWIIPIFGTTTYVQKFQGRVTITADESTSTAYMELSSLRSEDTAVYYCARVKYGSGSYYPNNWFDPWGQGTLVTVSS
VL: EIVLTQSPATLSASPGERATLSCRASQSISSNLAWYQQKPGQAPRLLIQDSSTRATGIPARFSGSGSGTEFTLTISSLQSEDFAVYYCQQSDNWPLTFGGGTKVDIK
notes: as for B3
For the molecule B6, the binding result in test [4] and in test [5] was “binds” in each case.

B7: R7H11 (rat hybridoma antibody) (antibody, V domains shown)
VH: QVQLKESGPGLLLSSETLSLTCTVSGFSLTSYEVSWVRQLPGRGLEWMGRVWIGGDTDYNSDLKSRLSISRDIAKSQVFLKMSNLKTEDTGTYYCARAYGFNYWSFDFWGPGTMVTVSS
VL: GQFTLTQPKSVSGSLRSTITIPCERSSGDIGDNYVTWYQQHLGRPPLNVIYADDQRPSEVSDRFSGSIDSSSNSASLTITNLQMDDEADYFCQSYDSNTDIIFGGGTKVTVL
notes: tested as rat hybridoma supernatant; lambda light chain
On to B7, for which the MFI in test [1] was 680 MFI.

B8: R10B10 (rat hybridoma antibody) (antibody, V domains shown)
VH: QVQLKESGPGLVQPSETLSLTCTVSGFSLTSYGVNWVRQPPGKGLEWMGRIWNDGSIDYNSALKSRLSISRDTSKGQVFLKMNSLQTEDTAIYFCARGPYNNYWYFDFWGPGTMVTVLS
VL: GQFTLTQPKSVSGSLRSTITIPCERSSGDIGDNYVSWYQQHLGRPPINVIYADDQRPSEVSDRFSGSIDSSSNSASLTITNLQMDDEADYFCQSYDSNIDIIFGGGTKLTVL
notes: as for B7
In test [1], B8 registered an MFI of 858 MFI.

B9: X355/07 IgG1 (antibody, V domains shown)
VH: QVQLQESGPGLVKPSETLSLTCAVYGGSFSGYYWSWIRQPPGKGLEWIGSIYHSGSTYYNPSLKSRVTISVDTSKNQFSLKLSSVTAADTAVYYCARDLYYYYGMDVWGQGTTVTVSS
VL: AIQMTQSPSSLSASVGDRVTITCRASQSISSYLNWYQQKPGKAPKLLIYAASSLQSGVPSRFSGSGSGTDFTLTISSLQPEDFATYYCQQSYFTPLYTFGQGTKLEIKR
notes: human IgG1 from phage-derived Fab
In test [2], B9 registered a Kd of 12.2 nM, a koff of 0.0138 s⁻¹ and a kon of 1.13e+06 M⁻¹ s⁻¹. Also, in test [3], the dissociation constant Kd came to 11.4 nM, the koff was determined as 0.00132 s⁻¹ and the association rate constant (kon) was 115000 M⁻¹ s⁻¹.

B10: X355/02 IgG1 (antibody, V domains shown)
VH: QLQLQESGPGLVKPSETLSLTCTVSGGSISSSSYYWSWIRQHPGKGLEWIGYIYYSGSTNYNPSLKSRVTISVDTLKNQISLRLTSVTAADTAVYYCARVGGAGGWPMDVWGQGTTVTVSS
VL: QAVLTQPASLSASPGESARLTCTLPSDINVRYYNIYWYQQKPGSPPRYLLYYYSDSHKGQGSGVPSRFSGSKDVSTNSGILLISGLQSEDEADYYCMTWSSNGSGVFGGGTQLTVLG
notes: as for B9
In test [2], B10 registered a Kd of 27.4 nM, a koff of 0.00228 s⁻¹ and a kon of 83400 M⁻¹ s⁻¹. Moreover, in test [3], binding was characterised by a dissociation constant (Kd) of 7.6 nM, the koff amounted to 0.000892 s⁻¹ and the kon is 118000 M⁻¹ s⁻¹.

B11: X355/04 FAb (Fab, V domains shown)
VH: QVQLVQSGAEVKKPGSSVKVSCKASGGTFSSYAISWVRQAPGQGLEWMGGIIPIFGTANYAQKFQGRVTITADESTSTAYMELSSLRSEDTAVYYCARDSSSWYFTYGYFQHWGQGTLVTVSS
VL: DVVMTQSPLSLPVTPGEPASISCRSSQSLLNSNGYNYLEWYVQKPGQSPQLLIFLGSNRASGVPDRFSGSGSGTDFTLKINRVEAEDVGVYYCMQALQSPLTFGGGTKVEIK
notes: as for B3
Consider B11, for which the binding result in test [4] and in test [5] was “binds” throughout.

B12: R5D1 IgG1 (antibody, V domains shown)
VH: EVQLQQSGPEVGRPGSSVKISCKASGYTFTDYIMHWVKQSPGQGLEWIGWIDPEYGRTDYAEKFKKKATLTADTSSSTAYIQLSSLASEDTATYFCARSAHTTGFGFAYWGQGTLVTVSS
VL: DIQMTQSPASLSASLGETVTIECRASEDIYSNLAWYQQKPGNSPQLLIYDANSLADGVPSRFSASGSGTQFSLKINSLRSEDVASYFCQQYNNYPYTFGAGTKLELKR
notes: chimeric rat-human IgG1
On to B12, for which, in test [2], the Kd was determined as 1 nM, the koff was found to be 0.0011 s⁻¹ and the kon worked out at 1.11e+06 M⁻¹ s⁻¹. Further, in test [3], the Kd was 1 nM, the dissociation rate constant (koff) is 0.000239 s⁻¹ and the kon turned out to be 243000 M⁻¹ s⁻¹.

B13: R5D1 (rat hybridoma antibody) (antibody, V domains shown)
VH: EVQLQQSGPEVGRPGSSVKISCKASGYTFTDYIMHWVKQSPGQGLEWIGWIDPEYGRTDYAEKFKKKATLTADTSSSTAYIQLSSLASEDTATYFCARSAHTTGFGFAYWGQGTLVTVSS
VL: DIQMTQSPASLSASLGETVTIECRASEDIYSNLAWYQQKPGNSPQLLIYDANSLADGVPSRFSASGSGTQFSLKINSLRSEDVASYFCQQYNNYPYTFGAGTKLELK
notes: as for B1
In test [1], B13 returned an MFI of 12200 MFI.

B14: R7F11 (rat hybridoma antibody) (antibody, V domains shown)
VH: QIQLVQSGPGLKKPGESVKISCKASGYTFTDYSMHWVKQAPGKGLQWMGWINTYSGKPTYAADFKGRFVFSLEASASTANLQISNLKNEDTATYFCARCYDGTFYYDPMDAWGQGTSVTVSS
VL: NIVLTQSPATLSVTPGESVSLSCRASQSIGTSIHWYQQKSNESPRLLIRYASQSISGIPSRFSGSGSGTDFTLSINRVESEDFSIYYCQQSYSSLVTFGSGTKLEIK
notes: as for B1
B14: the binding result in test [6] and in test [7] was “binds” throughout. The molecule also gave an MFI in test [1] of 11900 MFI.

B15: X913/15 FAb (Fab, V domains shown)
VH: QVQLVESGGGVVQGGGSLRLSCAASGFTVRSNYMSWVRQAPGKGLEWVSAISGSGDSTYYADSVKGRFTISRDNSKNTLYLQMNSLRAEDTAVYYCAKVAVTTGWYFDLWGRGTLVTVSS
VL: QAVLTQPASLSASPGESARLTCTLPSDINVRYHNIYWYQEKPGSPPRYLLYYYSDSSKGQGSGVPSRFSGSKDVSTNTGILVISGLQSEDEAEYYCMTWSSNGSGVFGGGTQLTVL
notes: as for B3
B15: the binding result in test [4] and in test [5] was “binds” each time.

In general, Kd refers to the constant that tells how readily two partners part at equilibrium. The term koff denotes the rate constant with which the complex falls apart. One may read the kon as the rate constant with which the complex forms.
